Source: publication PMC8458377 (Nature Communications, 2021)
Where a chain is given by its changes, count along the chain named. In names and notes the source's numbering stands.

Assays:
[1] = molecular target: the molecule itself; experiment: crystal structure; sitting drop vapour diffusion at 18 °C; spacegroup P6_(5)22, three copies in the asymmetric unit arranged as two dimer interfaces
[2] = molecular target: the molecule itself; experiment: SEC-MALLS; 100-400 µM loaded in 100 µL on Superdex INCREASE 200 10/300 GL in Acetate Buffer (50 mM sodium acetate, 300 mM NaCl, 1 mM TCEP pH 5.0), 1.0 mL/min
[3] = molecular target: the molecule itself; experiment: AUC; multispeed sedimentation equilibrium (18,000, 21,000, 26,000 rpm), Acetate Buffer, global fit to a monomer-dimer-tetramer model; constant of: dimer to monomers (KD1-2)
[4] = molecular target: the molecule itself; experiment: AUC; multispeed sedimentation equilibrium (18,000, 21,000, 26,000 rpm), Acetate Buffer, global fit to a monomer-dimer-tetramer model; constant of: tetramer to dimers (KD2-4)
[5] = molecular target: the molecule itself; experiment: AUC; sedimentation velocity, 50,000 rpm, 293 K, Acetate Buffer, interference data, 30-181 µM, C(S) analysis

B1: p18m_AUG1, Ty1 Gag residues M249-N355 (crystallised) (domain or fragment, S. cerevisiae, UniProt P08405 249-355, looked up)
chain: MKILSKSIEKMQSDTQEANDIVTLANLQYNGSTPADAFETKVTNIIDRLNNNGIHINNKVACQLIMRGLSGEYKFLRYTRHRHLNMTVAELFLDIHAIYEEQQGSRN
notes: S. cerevisiae Ty1A (Ty1 Gag), Uniprot P08405, residues M249-N355, starting at the AUG1 methionine; Residues D262 to Q351 are visible in the map; source: E. coli BL21 (DE3), purified (Ni-NTA, carboxypeptidase A digestion, gel filtration)
Does B1 bind [1]?
Result: binds

B2: p18m-I269F (p18m_AUG2-I269F) (domain or fragment, S. cerevisiae, UniProt P08405 259-355, looked up)
chain: MQSDTQEANDFVTLANLQYNGSTPADAFETKVTNIIDRLNNNGIHINNKVACQLIMRGLSGEYKFLRYTRHRHLNMTVAELFLDIHAIYEEQQGSRN
notes: S. cerevisiae Ty1A (Ty1 Gag), Uniprot P08405, residues M259-N355 with I269F; source: E. coli BL21 (DE3), purified
With B2 as the protein, how does the “stoichiometry N” value [2] read?
Its value is 2.

And the Kd [3]?
Its Kd is 740 nM.

And the Kd [4]?
Its Kd is 45.3 µM.

B3: p18m-A273V (p18m_AUG2-A273V), solution studies (domain or fragment, S. cerevisiae, UniProt P08405 259-355, looked up)
chain: B2 chain with F11I, A15V
notes: S. cerevisiae Ty1A (Ty1 Gag), Uniprot P08405, residues M259-N355 with A273V; Tag removal is described only for the crystallographic sample; source: E. coli BL21 (DE3), purified
What does the source list for B3?
Kd [3]: 340 nM; Kd [4]: 51.8 µM; stoichiometry N [5]: 2

B4: p18m (p18m_AUG2), Ty1 Gag residues M259-N355 (domain or fragment, S. cerevisiae, UniProt P08405 259-355, looked up)
chain: B2 chain with F11I
notes: S. cerevisiae Ty1A (Ty1 Gag), Uniprot P08405, residues M259-N355, starting at the AUG2 methionine; also called WT p18m; source: E. coli BL21 (DE3), purified (Ni-NTA, gel filtration in Acetate Buffer)
How did the “stoichiometry N” value [2] turn out when B4 was run?
The value was 2.

And the Kd [3]?
Its Kd is 730 nM.

And the Kd [4]?
The Kd was 43.2 µM.

B5: p18m_AUG2-A273C (domain or fragment, S. cerevisiae, UniProt P08405 259-355, looked up)
chain: B2 chain with F11I, A15C
notes: S. cerevisiae Ty1A (Ty1 Gag), Uniprot P08405, residues M259-N355 with A273C; source: bacterially expressed (E. coli), purified
B5 was tested. Which “stoichiometry N” value [2] did it give?
Its value is 2.

B6: Seleno-methionine p18m_AUG2 (crystallised) (domain or fragment, S. cerevisiae, UniProt P08405 259-355, looked up)
chain: B2 chain with F11I
modifications: seleno-methionine substituted
notes: S. cerevisiae Ty1A (Ty1 Gag), Uniprot P08405, residues M259-N355; also called Se-Met p18m_(AUG2); source: E. coli B834 (DE3) in seleno-methionine medium, purified (Ni-NTA, gel filtration in Acetate Buffer)
Does B6 bind [1]?
Result: binds

B7: p18m-F323S (domain or fragment, S. cerevisiae, UniProt P08405 259-355, looked up)
chain: B2 chain with F11I, F65S
notes: S. cerevisiae Ty1A (Ty1 Gag), Uniprot P08405, with F323S; also called Dimer-2 interface-mutant p18m-F323S; source: E. coli BL21 (DE3), purified
For B7, which “stoichiometry N” value [2] is on record?
The value was 2.
